The source of these data is US20030040044A1.

Assay [1] addresses αvβ3 and αvβ5 integrins together on human cells (M21, A375S2, HUVEC) (human) (UniProt P06756).
The target of assay [2] is αVβ3 integrin on human cells (human) (UniProt P06756).
Assay [3] has the same target. The source holds these as a separate data set.
For assay [4] the target is unchanged. Kind of assay: binding of radiolabelled LM609 to A375S2 cells, Bmax, n = 2.
Assay [5] has as its target αVβ5 integrin on human cells (human) (UniProt P06756).
Assay [6] has the same target. This is another data set of the same source.
Assay [7] has the same target. Kind of assay: binding of radiolabelled P1F6 to M21 cells, Bmax, n = 2.
Assay [8] shares this target. The assay can be described thus: binding of radiolabelled P1F6 to HT-29 cells, Bmax, n = 1.
The target is the same in assay [9]. Kind of assay: binding of radiolabelled P1F6 to A375S2 cells, Bmax, n = 4.
The target in assay [10] is human αVβ3 integrin, purified (human) (UniProt P06756). Kind of assay: saturation binding on αvβ3 coated plate (ELISA), non-linear regression, n = 6.
Assay [11] shares this target. The assay can be described thus: ELISA on αVβ3-coated plates, fifty percent maximal binding.

In assay [1], “Human IgG (polyclonal serum or antibody)” registered an Adhesion (%) of HUVEC to vitronectin (% of adhesion without antibody) of 96.3.
In [2], LM609 (antibody) yielded an Adhesion (%) of HUVEC to fibrin (% of adhesion without antibody) of 48.1, an Adhesion (%) of HUVEC to fibrinogen (% of adhesion without antibody) of 14.3, an Adhesion (%) of HUVEC to gelatin (% of adhesion without antibody) of 36.5 and an Adhesion (%) of HUVEC to vitronectin (% of adhesion without antibody) of 26.3. In assay [3], this substance had an Adhesion (%) of A375S.2 cells to fibrin (% of adhesion without antibody) of 50, an Adhesion (%) of A375S.2 cells to fibrinogen (% of adhesion without antibody) of 14, an Adhesion (%) of A375S.2 cells to gelatin (% of adhesion without antibody) of 25.2 and an Adhesion (%) of A375S.2 cells to vitronectin (% of adhesion without antibody) of 42.1. The substance further yielded a Receptors per cell (receptors per cell) in assay [4] of 300000.
P1F6 (antibody): in assay [5], the Adhesion (%) of HUVEC to vitronectin (% of adhesion without antibody) was found to be 39.8. In assay [6], this substance displayed an Adhesion (%) of A375S.2 cells to vitronectin (% of adhesion without antibody) of 28.5. The Receptors per cell (receptors per cell) came out at 44000 in assay [7], 73000 in assay [8] and 70000 in assay [9].
The substance ReoPro (Fab) returned a Kd in [10] of 250 pM. In other words, the sub-nanomolar range.
On to c7E3 IgG (antibody), for which the EC50 in [11] came out at 0.07 µg/mL.
